experiment: soluble fraction after stress (log2 fold change); higher = more stays soluble; pooled small domains, quantitative proteomics; details: stress: 50 degC
In short: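 The stress applied to every library was 50°C. These custom libraries of small protein domains were pooled and measured at high throughput with quantitative proteomics as the read-out. Aggregation propensity is expressed as the base-two logarithm of the fold change in how much of each protein remains soluble. The higher the value, the more of that protein stays in solution.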

Row | Sequence | soluble fraction (log2)
1 | HMLGVKKFGGEAVIAGNIILRQRGTKWITGSNVGIGKDHTLFAKIEGYVVFERMRGRDGQQQISIYP | -0.101
2 | HMLGYQALASAFRSKVEAGIWPIGEAIPSEARLSKEYGVAVGTIRQAIAELAEEGILIKRHGKSTMVSSG | -0.873
3 | HMLHEFSGVVVSILADTGPSTLKQLHRSLISSDVKMDEKELMQILDEALSSGSVTSHRKGRYLYYSANK | -0.58
4 | HMLHIKKGDTVIVNAGESKGQQGKVLEVLVGKERAIVEGVNMVSKHTKPNAKNPQGGIVKKEAPIHISNLQ | 0.179
5 | HMLHPLLWAVDEPTPVTVRTRPEYVPDVVRWLMQPESQREHDGVVDLRYTVTHRAAFRSRIYVLGTRVTIP | -0.112
6 | HMLIADADSLRKQIETVLANAPNEVAAYRGGKETLMGWFVGQIMRATGGKADPKLTREILAELLQ | 0.00102
7 | HMLIADSDALRSQIESILNGNPNEVASFRAGKESLMGWFVGQVMRSTGGKADPKRTRELLQELLTK | -0.102
8 | HMLIDSEILKKTNKITIFLIYAFFSEYLINKEKKKILIGEYIKLSKDFLTIEEVKYFNHLLDDISK | 0.0074
9 | HMLIDSNNYFFYKVKPKEGFYSLQKKLGVNRSEIEKHNPSLINEVLKEGMILKIPKYLLNFDLN | -0.297
10 | HMLILTWNYPYEYPMMMRSFLQEIGISRTFLAHIKSNGELLINGRHEIVLKTLQPGDVLTMVIPPSG | -1.71
11 | HMLINLGPRIRKERRSKGISQSDFSKNLGISASYLNLLENGRRTLTVPLLIKIGNELNLSLKDL | -0.0339
12 | HMLISAESVKRRLEMIRHLILLGDYEDVTAQVIKLNPAANEYKLTPIIEELNGGKYQEALEKINSYLSKF | 0.0802
13 | HMLISKNLLGFTIKNTSGVTFGTLKDIMWLPSNDVYVIDNNGKEYLIPVISEIVKSINYDKGSITIFP | -0.352
14 | HMLKASEVLPYVFTDKFFIDDLNLKQDQILGFLEYIDSKLPSQKLLQVSQQFQLIDFLINESKNYKNQ | -0.382
15 | HMLKDININVTGLDQISNAKLINNLNLLKMNNLFFLDEKKIKKILNSNNLIEKFFIFKKYPSTLDIKVYKT | -0.0369
16 | HMLKHNLLSELSRIEGVGAVKRKALMDKFGTVENIKRASEEELSEVAGIGPTLARTIKEQMNKDE | -0.184
17 | HMLKKRKPMSGVGVIVKGMLTGTVTGTDGSYALKARPNDELSFSFLGYKTQEVFVGSKSTIDITLVDEA | -0.13
18 | HMLKLEEIQPNATVRGILPDALITVVNVKWFGSEALELTYKDTSGRVANQLLFRDDQPRLEIVE | -0.538
19 | HMLKLEPYTINEINSLQELYDLGNVRALETLISIYKDKNQVYDTRFYVLDILSKYDNPLIQEALEESITN | -1.78
20 | HMLKLPVEYLNLKYQLMHATSLDKPNNLMKLDEKLGKIIDVYYDDLPVDEQRVVDILQSKLYSY | -0.996
21 | HMLKLYILTDGKNYVMDDPIHPGRVMYSTSPVNAKKFTFKQARALLNNKSKKLSWIRSFNMVDDSSGEKI | -0.692
22 | HMLKREDEVIVVAGKDKGKRGTITQLVGDDRVIVAGVNMVKRHTKPNPNLGQPGGIVEREASLHISNV | 0.296
23 | HMLKVHPRDQEENRLLLLKGERLYEESTGDTRVMIDMWLRKFEEALNSRSRENIEDARRELKEQLAELDN | -0.00144

Row | Sequence | soluble fraction (log2)
24 | HMLLAPLRLGAAPDIKAQAPLATILARHNGEMEAKDLWQRFGGEIDAFYLQLKTEVAHGWIVEPEPA | -0.816
25 | HMLLELINLQVKILENEELKIIGKVIDLENEKNNLLVIELLKDQKKVLVPFVKEIVPLIDIKNNFIMINPP | -0.897
26 | HMLLFNVADIVKRAKRVLNFKTDAELAAYLGVSRPTLSNWIARNGIDFPLLLEKLKEIDYNWLLVGKGKPE | -2.33
27 | HMLLGPDALTNRELDVLALLERRLSNKEIGALLYISPRTVKRHTINIYQKLHVNNRRAAVAQAKALGLMPD | -1.79
28 | HMLLKIRPDLDGNEIMKLLNIAAGPNVGKAYEHLLELRLEHGPLGKERAEQELMNWWSARSQ | -1.09
29 | HMLLNSLIDTLAAEKATVVPGTEVFKLYDTYGFPWELTEEIASERGFTIDHEGFEAAMKEQRERAREARV | -0.0257
30 | HMLLNTSQLKELYNRYDKKNSSLISIPFSAISDEPLKFYKWYAALFQIELNVKAFADVDSKQIIIYKGTK | -2.51
31 | HMLLRSEDAIELGKSQLEDALAPYKIETLDTGTVQQLLDSLKLNSLESLYQEIGLGNRMSTIIAHRLLGE | -0.156
32 | HMLLSFYGTYGNVKLTGKELEDLQKEFPFDYQARIDRLSAYMESSGRKYHSHFATIRSWAQDDAKKN | -1.79
33 | HMLLSYDIAEYIEKYIHEHGLQPGDRLPTERELAAQLDITRVSVRQGYKRLLDQGVIRSENGYYVNPPR | -1.34
34 | HMLLTDGLERRIDGDKNLHIRISLPMLVKGQIKLAKSGNNESTVKGIFKIESYPGSHPRDVVTEIIEG | -0.0938
35 | HMLLTHPKRVFTYELIMELVWNEDYTFYSKKAVSNHMSNLRKKLKVTPDALDYIKNIVGVGYKFEA | -0.759
36 | HMLMKKTITHEIELLEFLKQIFPQSSTNKLRKMLSNGRIKINSEIVHKAKYKLQENDTFELLDNPT | -0.488
37 | HMLNEIMDTINKYISDKRNNKVAQNILSAALDELNSQIRVGLKDLNPHSIEEFKENVINSPYIEFEQG | 0.046
38 | HMLNEWIDYIDEHIKEELTAKNLATVFGYSERHFRNVFQIYYDIKLNDYIRRRKLYFAAQELKKG | -1.17
39 | HMLNMSVYDKQLLRAVENNPFISQRELARELHWNVDRVKYYMKKWKDKGGLRHVGSSHKGYWEVLVRIEEK | -0.886
40 | HMLNNVDIHKLSEDLLLYKIKIDIKLKNIEDAISTIDYFSNKFPNSDLMPYVIYEKKLIDNI | -2.5
41 | HMLNPLLLPFVEAEDFQVKLEILAAMEGKVGEEDLDILYEALDLPKMTGNIEEQIHSIKQYIEMRK | -1.15
42 | HMLNPVEKLLLLSQLYIGRLKGSFVVKEKHHKSTILGEVRELSPEEITLKTDEGYRLIRVDDILTIQL | -2.18
43 | HMLNSLDATQRLKLNKDGVVVFNFGKYVDQSVIDIFKKEKGYYNWMMSKDFSQQVKNIITKIYQEEIIG | -0.982
44 | HMLNTLGADIRALRKARGLTLAELAQTLGRSVGWLSQVERDMSEPGINDLRDLARALDVSISSLFG | -1.13
45 | HMLNWINSDVLERFNSLTKEKQKAIVADTETRLNGLSQARFKVAKSSSNERLIAEFAIEINEAIMRAAAL | -1.49
46 | HMLPADETEARVLNVLGSEPLHVDEIRNQADLPIEKISATLAMMELKGMVRQVGGMNYVAMR | 0.0898

Row | Sequence | soluble fraction (log2)
47 | HMLPANGEAIYHYLASGAIKGVGPVTAQRIVDKFGEDTFDVLENNPLWLAEIKGITRKTAENIGAAFAAQF | ≥ 0.62
48 | HMLPDAESFSYEVPYTKGDGGTYNYEGKIKAQNADAARDEIIRQAQVYFQMNPQFTPDYPSTTITSLD | 0.171
49 | HMLPDDDMLLNILTKLLIDKQFVINSHEIFDFIIKRANRSYEEMFILVNKLDQLSLEKKRQLTIPLIKEI | -0.652
50 | HMLPDLQESIDELLNIVDQRLNTSFEELVSGVNTTEKAIAFFLALLETIKWGFIKAEQTNNENKINIEKNY | 0.0699
51 | HMLPDPIYEAFMMASDLGIVVRNGPQYAYPDKETGEVLYKALGREKFLQLMKDNDGLLTSIETEIRSM | -1.18
52 | HMLPKTVTLIDPVSGVAKTVTWVPALTLYSARRKAGLNRVPNTATIDRGGRELTGKRGSTLQPGDVVRW | -0.425
53 | HMLPPLGDQELELLRFITESAPITVREAAESYGKDRGLARTTVLTMMERLRAKGYLTRSESGAANEYSP | -0.155
54 | HMLPPVFLTIDANENVIVRKDGEPVQTLNKFELGAFARSQAENSAEQPVVLAADKSIKYEVVMEVI | 0.0698
55 | HMLPRLVLSPGTEVLATVMGKYENGMSLVKISSHLFAMDLPSRVQVGDSLRMTFLHQDARPTFALA | -0.779
56 | HMLPSDLDEGNRRRQLIEGAARLFRAKGFDGTSTRDIAAAAGMRSGSPFYHFDSKNALLYVVVQEGM | -0.0519
57 | HMLPSWLPTDAWEAFLEARVAMKARPTERAKGLLLGELSKLVSQGQDARAVLEQSVQRGWRGLFPVK | -1.52
58 | HMLPSWPGVSEFEVARLLRRGRARGSLTLDEVIDVVRDAELTSELIAGIRSSLRAEGIDFEET | -0.475
59 | HMLPTLSLSVKIYKGEGDIALDLEEMVKAFDQLNFGSYPFSEKGVHGTNIVIRGNDKKHMEEAEDKVRSLT | -0.725
60 | HMLPVDALFAQHPALIVTLGQTEKLKHGAAIRDWHFADGTYRVYSETGEFLLLGTVKGQILTTVKSFFE | -2.08
61 | HMLQARKFTHIQGYEFEAEFLRTNGEFVELQDPQGRKKWFPISNFIQDDKDFIKEQAGNLSS | -0.0494
62 | HMLQEFTLELATAVVQEFRDQPGALINALHKLQETFGYVDEAAMPVLARLFNLSRAEVHGVASFYHDFRRS | -1.49
63 | HMLQEHVLEIRHPSWNDAFRIIGHDGWRTQTGAHAAILSYDEEELNIKWDSWGYERFIRDEKGIFRLAA | -0.055
64 | HMLQESDPEALRGIVKSVLVDHAAVAEEYRAGKQSVLQFLVGQGMKASKGAGNPGLIRDLMLEEL | -0.00903
65 | HMLQLSDAISRVESFLQGQNRNLAFSIDENTERSVVTVLDSDTGDVIRQIPSEELLVLAKRIQELQQD | 0.151
66 | HMLQMSDSSALEAILDEVLGSEMGQKALSDIEAGNMKAMGFIIGQSMKLSKGQANPQIINKLLQQRLK | -0.000287
67 | HMLQNLGFKPDLEIRHFPGIVLPDIHRSKKTISLLYTLLAGDIKKLPENEINYKDSKIISSYLWTLLRYH | 0.0237
68 | HMLQSGSDYLIEQVRMYTATGQREYMDNYFEELNTTRRRENALEYFAEHYGDNDAFTLLKSAMTTSQN | -0.428
